Results taken from article PMC5397172.

How the values were obtained:
Test in all cases: EMSA
HA-p65;Flag-p50 = HA-p65;Flag-p50 (human?;human?, UniProt Q04206;P19838 1-551;1-433, |)
Flag-p50 (homodimer) = Flag-p50 (homodimer) (UniProt P19838 1-433)
Flag-p65 (homodimer) = Flag-p65 (homodimer) (UniProt Q04206 1-551)

Measured: binding result

Flag-p50 (homodimer), sequence (P19838 1-433): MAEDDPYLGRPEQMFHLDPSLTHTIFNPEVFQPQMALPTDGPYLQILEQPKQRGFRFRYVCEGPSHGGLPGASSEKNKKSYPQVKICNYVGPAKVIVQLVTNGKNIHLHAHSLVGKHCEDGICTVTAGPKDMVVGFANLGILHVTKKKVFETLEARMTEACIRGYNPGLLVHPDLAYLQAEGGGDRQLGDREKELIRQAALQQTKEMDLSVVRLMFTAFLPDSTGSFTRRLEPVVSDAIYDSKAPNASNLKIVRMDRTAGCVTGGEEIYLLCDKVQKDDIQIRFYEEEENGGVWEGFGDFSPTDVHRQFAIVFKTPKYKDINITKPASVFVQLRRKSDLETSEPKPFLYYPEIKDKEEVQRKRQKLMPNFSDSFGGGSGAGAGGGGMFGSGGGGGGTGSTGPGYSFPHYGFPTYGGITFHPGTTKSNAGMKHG
HA-p65;Flag-p50, sequence (Q04206 whole entry, chain 1 of 2): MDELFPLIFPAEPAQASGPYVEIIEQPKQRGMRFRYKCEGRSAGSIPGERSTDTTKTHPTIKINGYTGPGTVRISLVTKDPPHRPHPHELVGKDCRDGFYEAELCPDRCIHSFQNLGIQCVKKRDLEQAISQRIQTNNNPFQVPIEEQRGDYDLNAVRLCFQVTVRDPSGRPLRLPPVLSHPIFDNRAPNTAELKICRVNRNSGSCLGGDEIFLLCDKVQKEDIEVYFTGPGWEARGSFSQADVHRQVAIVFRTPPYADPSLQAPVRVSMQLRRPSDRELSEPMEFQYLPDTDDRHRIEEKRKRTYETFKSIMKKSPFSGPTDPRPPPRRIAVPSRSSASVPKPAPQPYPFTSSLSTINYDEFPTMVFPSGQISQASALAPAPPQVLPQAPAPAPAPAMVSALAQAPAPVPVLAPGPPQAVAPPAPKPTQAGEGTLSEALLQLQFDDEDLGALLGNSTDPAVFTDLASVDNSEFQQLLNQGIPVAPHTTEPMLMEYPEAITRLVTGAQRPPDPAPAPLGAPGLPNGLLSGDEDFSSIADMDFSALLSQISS
HA-p65;Flag-p50, sequence (P19838 1-433, chain 2 of 2): as the sequence (P19838 1-433) above
Flag-p65 (homodimer), sequence (Q04206 whole entry): as the sequence (Q04206 whole entry, chain 1 of 2) above

B1: Ig kappaB mutant (dsDNA)
DNA 1: AGTTGAATCCACTTTCCCAGG
DNA 2: CCTGGGAAAGTGGATTCAACT
no binding: HA-p65;Flag-p50 | Flag-p50 (homodimer) | Flag-p65 (homodimer)
